Experimental data reported in PMC10558373, “[^68Ga]Ga-NODAGA-E[(cRGDyK)]2 angiogenesis PET following myocardial infarction in an experimental rat model predicts cardiac functional parameters and development of heart failure” (Journal of Nuclear Cardiology, 2023).
[ ]: non-standard residue; d: D form.

T1: integrin αvβ3 (UniProt P06756 31-1048; P05106 27-788)
T1 chain 1: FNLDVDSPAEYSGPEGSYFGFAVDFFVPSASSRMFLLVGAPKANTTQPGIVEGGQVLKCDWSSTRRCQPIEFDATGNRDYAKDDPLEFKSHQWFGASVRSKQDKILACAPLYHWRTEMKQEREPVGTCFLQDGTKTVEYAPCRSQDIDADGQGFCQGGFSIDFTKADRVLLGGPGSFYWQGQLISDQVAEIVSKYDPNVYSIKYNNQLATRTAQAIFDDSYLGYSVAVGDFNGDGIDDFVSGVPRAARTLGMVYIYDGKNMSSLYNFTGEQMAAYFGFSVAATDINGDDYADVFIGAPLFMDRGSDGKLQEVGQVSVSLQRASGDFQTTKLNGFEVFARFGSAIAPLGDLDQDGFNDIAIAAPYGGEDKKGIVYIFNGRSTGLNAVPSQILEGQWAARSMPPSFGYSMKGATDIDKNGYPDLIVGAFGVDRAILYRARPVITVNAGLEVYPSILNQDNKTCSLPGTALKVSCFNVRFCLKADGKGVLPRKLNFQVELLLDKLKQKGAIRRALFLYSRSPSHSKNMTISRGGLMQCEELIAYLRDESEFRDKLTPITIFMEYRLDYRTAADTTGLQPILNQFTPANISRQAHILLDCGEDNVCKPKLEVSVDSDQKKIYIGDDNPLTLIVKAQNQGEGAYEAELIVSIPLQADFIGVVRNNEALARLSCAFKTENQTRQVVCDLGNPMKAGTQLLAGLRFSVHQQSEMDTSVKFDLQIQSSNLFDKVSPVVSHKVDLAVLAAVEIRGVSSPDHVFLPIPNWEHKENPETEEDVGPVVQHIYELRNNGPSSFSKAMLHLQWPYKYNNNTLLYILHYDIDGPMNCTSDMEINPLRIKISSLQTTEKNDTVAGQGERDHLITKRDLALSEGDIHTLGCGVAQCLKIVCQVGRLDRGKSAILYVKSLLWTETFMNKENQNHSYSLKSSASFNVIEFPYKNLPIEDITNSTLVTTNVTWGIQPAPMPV
T1 chain 2: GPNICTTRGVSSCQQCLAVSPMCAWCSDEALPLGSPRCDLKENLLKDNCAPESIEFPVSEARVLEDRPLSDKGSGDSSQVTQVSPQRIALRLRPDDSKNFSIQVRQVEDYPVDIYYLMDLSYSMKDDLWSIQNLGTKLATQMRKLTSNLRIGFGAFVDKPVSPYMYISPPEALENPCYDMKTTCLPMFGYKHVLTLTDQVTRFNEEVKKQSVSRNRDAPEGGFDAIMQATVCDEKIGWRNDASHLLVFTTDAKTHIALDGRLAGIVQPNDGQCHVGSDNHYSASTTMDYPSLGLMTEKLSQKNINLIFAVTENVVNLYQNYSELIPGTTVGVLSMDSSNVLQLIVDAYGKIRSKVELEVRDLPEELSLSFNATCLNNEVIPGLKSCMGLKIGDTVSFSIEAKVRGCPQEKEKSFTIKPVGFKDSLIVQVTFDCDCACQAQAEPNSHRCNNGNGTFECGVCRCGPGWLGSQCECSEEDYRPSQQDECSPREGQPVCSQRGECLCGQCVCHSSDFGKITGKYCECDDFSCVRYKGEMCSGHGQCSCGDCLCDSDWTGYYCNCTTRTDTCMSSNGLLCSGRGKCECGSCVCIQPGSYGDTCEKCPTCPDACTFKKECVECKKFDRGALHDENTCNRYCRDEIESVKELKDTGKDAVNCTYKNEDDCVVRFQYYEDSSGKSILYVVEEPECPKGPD


How the values were obtained:
integrin αvβ3 [1] = target: integrin αvβ3 (UniProt P06756); assay: SPR; Biacore X100, CM5 chip, integrin αvβ3 amine-coupled (~4200 RU), single cycle kinetics; running buffer Tris-HCl 20 mM, NaCl 150 mM, P20 0.05%, MgCl2 1 mM, pH 7.4; kinetic fit, steady state fit for fibronectin
integrin αvβ3 [2] = target: integrin αvβ3 (UniProt P06756); assay: SPR; Biacore X100, CM5 chip, integrin αvβ3 amine-coupled (~4200 RU), single cycle kinetics; running buffer Tris-HCl 20 mM, NaCl 150 mM, P20 0.05%, MgCl2 1 mM and MnCl2 1 mM, pH 7.4; kinetic fit, steady state fit for fibronectin
integrin αvβ3 [3] = target: T1, integrin αvβ3; assay: SPR; Mg2+
integrin αvβ3 [4] = target: T1, integrin αvβ3; assay: SPR; Mg2+
integrin αvβ3 [5] = target: T1, integrin αvβ3; assay: SPR; Mg2+ + Mn2+
integrin αvβ3 [6] = target: T1, integrin αvβ3; assay: SPR; Mg2+ + Mn2+
integrin αvβ3 [7] = target: integrin αvβ3 (UniProt P06756 31-1048; P05106 27-788); assay: SPR; Biacore X100, single cycle kinetics, in the presence of Mg2+ and Mn2+; conditions: both partners purified
integrin αvβ3 [8] = target: integrin αvβ3 (UniProt P06756); assay: SPR; Biacore X100, CM5 chip, integrin αvβ3 amine-coupled (~4200 RU), single cycle kinetics; running buffer Tris-HCl 20 mM, NaCl 150 mM, P20 0.05%, MgCl2 1 mM, pH 7.4; kinetic fit, steady state fit for fibronectin; remark: listed apart in the source
integrin αvβ3 [9] = target: integrin αvβ3 (UniProt P06756); assay: SPR; Biacore X100, CM5 chip, integrin αvβ3 amine-coupled (~4200 RU), single cycle kinetics; running buffer Tris-HCl 20 mM, NaCl 150 mM, P20 0.05%, MgCl2 1 mM and MnCl2 1 mM, pH 7.4; kinetic fit, steady state fit for fibronectin; remark: listed apart in the source

vitronectin, sequence (P04004 20-478): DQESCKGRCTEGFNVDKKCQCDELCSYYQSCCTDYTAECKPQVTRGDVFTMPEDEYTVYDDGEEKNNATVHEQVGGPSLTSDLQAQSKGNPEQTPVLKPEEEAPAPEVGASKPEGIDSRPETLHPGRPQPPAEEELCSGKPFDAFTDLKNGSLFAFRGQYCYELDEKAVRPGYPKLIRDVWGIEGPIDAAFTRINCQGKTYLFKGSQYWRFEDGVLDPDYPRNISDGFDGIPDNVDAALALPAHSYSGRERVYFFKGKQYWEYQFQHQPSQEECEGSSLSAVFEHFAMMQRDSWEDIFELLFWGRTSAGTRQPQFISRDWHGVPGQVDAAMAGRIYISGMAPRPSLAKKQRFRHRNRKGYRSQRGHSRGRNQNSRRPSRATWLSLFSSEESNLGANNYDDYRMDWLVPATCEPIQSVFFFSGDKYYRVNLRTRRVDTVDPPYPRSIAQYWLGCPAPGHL

| Kd (integrin αvβ3 [1]) [nM] | koff (integrin αvβ3 [1]) [s⁻¹] | kon (integrin αvβ3 [1]) [M⁻¹ s⁻¹] | Kd (integrin αvβ3 [2]) [nM] | koff (integrin αvβ3 [2]) [s⁻¹] | kon (integrin αvβ3 [2]) [M⁻¹ s⁻¹] | Kd (integrin αvβ3 [3]) [nM] | koff (integrin αvβ3 [4]) [s⁻¹] | Kd (integrin αvβ3 [5]) [nM] | koff (integrin αvβ3 [6]) [s⁻¹] | fold stronger binding than vitronectin (integrin αvβ3 [7]) [fold] | Kd (integrin αvβ3 [8]) [nM] | koff (integrin αvβ3 [8]) [s⁻¹] | kon (integrin αvβ3 [8]) [M⁻¹ s⁻¹] | Kd (integrin αvβ3 [9]) [nM] | koff (integrin αvβ3 [9]) [s⁻¹] | kon (integrin αvβ3 [9]) [M⁻¹ s⁻¹] | Molecule |
| --- | --- | --- | --- | --- | --- | --- | --- | --- | --- | --- | --- | --- | --- | --- | --- | --- | --- |
| 1.3 | 0.00021 | 32000 | 24 | 0.00032 | 13000 | – | – | – | – | – | – | – | – | – | – | – | vitronectin (from UniProt P04004 20-478) (ligand) |
| – | – | – | – | – | – | 0.075 | 7e-05 | 0.00071 | 2.5e-07 | 1000 | 0.075 | 7e-05 | 930000 | 0.00071 | 2.5e-07 | 350000 | cyclo(RGD[dY]K) (also: dimer of two cyclic peptides on a Glu linker, NODAGA chelator with 68Ga) [[^68Ga]Ga-NODAGA-E[(cRGDyK)]2] |
